# Where no end group is shown, it is not given here. Side-chain parts run from the residue outwards. [ ]: non-standard residue; d: D form. The star is where a group is joined. SO2‑IQ = 5-aminoethylsulfoneamide isoquinoline, O=S(=O)(NCCN*)c1cccc2cnccc12; X1 = 5‑aminoethylsulfonamide isoquinoline, O=S(=O)(NCCN*)c1cccc2cnccc12; hLeu = CC(C)CC[C@H](N)C(=O)O; GltNH2 = not defined here; Nle = CCCC[C@H](N)C(=O)O; Orn = NCCC[C@H](N)C(=O)O; Nva = CCC[C@H](N)C(=O)O; Abu = CC[C@H](N)C(=O)O; Dap = NC[C@H](N)C(=O)O; Ph2 = not defined here; GlyNH2 = aminoglycine
# Target: T1, PKB (Homo sapiens, UniProt P31749)
# T1 construct: His; HA; made in house
# Assay: PKB in vitro kinase activity assay (soluble His-HA-PKB / SPA bead screening)
# Type: biochemical
# Set-up: % Inhibition PKB I / % Inhibition PKB II: concentration or dose not given beside the values
# Settings: 1 μM compound concentration, Assay 1
# T1 sequence (P31749 whole entry, species assumed): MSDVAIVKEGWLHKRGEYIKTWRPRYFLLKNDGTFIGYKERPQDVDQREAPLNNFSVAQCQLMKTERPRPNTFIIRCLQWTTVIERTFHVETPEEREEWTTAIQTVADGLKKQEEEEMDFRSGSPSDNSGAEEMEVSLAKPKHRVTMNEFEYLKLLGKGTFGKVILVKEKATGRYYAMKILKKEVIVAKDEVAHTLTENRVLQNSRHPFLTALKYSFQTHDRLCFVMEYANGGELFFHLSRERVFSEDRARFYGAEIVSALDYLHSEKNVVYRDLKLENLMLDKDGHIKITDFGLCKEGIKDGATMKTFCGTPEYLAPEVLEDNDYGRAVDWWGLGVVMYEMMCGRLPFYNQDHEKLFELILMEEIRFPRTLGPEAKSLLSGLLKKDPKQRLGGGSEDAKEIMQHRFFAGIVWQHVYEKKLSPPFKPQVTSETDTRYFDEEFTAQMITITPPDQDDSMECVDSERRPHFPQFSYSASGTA
row,"PKB-kinase (spa) Assay 1, % inhibition of kinase activity [%]",Substance
1,14,60020-30: Arg-Pro-Arg-Nle-Glu(5-aminoethylsulfonamide isoquinoline)-Ala-Hol (RPR[Nle]E(X1)A[hLeu])
2,12,60020-32: Arg-Pro-Arg-Nle-Glu(5-aminoethylsulfonamide isoquinoline)-Nva-Hol (RPR[Nle]E(X1)[Nva][hLeu])
3,21,60020-47: Arg-Pro-Arg-Orn-Glu(Gly-5-aminoethylsulfonamide isoquinoline)-Nva-Phe (RPR[Orn]E([Gly-X1])[Nva]F)
4,20,60020-53: Arg-Pro-Arg-Abu-Glu(Gly-5-aminoethylsulfonamide isoquinoline)-Ala-Phe (RPR[Abu]E([Gly-X1])AF)
5,20,60020-55: Arg-Pro-Arg-Abu-Glu(Gly-5-aminoethylsulfonamide isoquinoline)-Nva-Phe (RPR[Abu]E([Gly-X1])[Nva]F)
6,20,60020-56: Arg-Pro-Arg-Abu-Glu(Gly-5-aminoethylsulfonamide isoquinoline)-Nva-Hol (RPR[Abu]E([Gly-X1])[Nva][hLeu])
7,25,60020-64: Arg-Pro-Arg-Nle-Glu(Gly-5-aminoethylsulfonamide isoquinoline)-Nva-Hol (RPR[Nle]E([Gly-X1])[Nva][hLeu])

# The remaining lines, values behind:
row,Substance,"PKB-kinase (spa) Assay 1, % inhibition of kinase activity [%]"
1,60020-39: Arg-Pro-Arg-Dap-Glu(Gly-5-aminoethylsulfonamide isoquinoline)-Nva-Phe (RPR[Dap]E([Gly-X1])[Nva]F),17
2,60020-40: Arg-Pro-Arg-Dap-Glu(Gly-5-aminoethylsulfonamide isoquinoline)-Nva-Hol (RPR[Dap]E([Gly-X1])[Nva][hLeu]),36
3,60020-45: Arg-Pro-Arg-Orn-Glu(Gly-5-aminoethylsulfonamide isoquinoline)-Ala-Phe (RPR[Orn]E([Gly-X1])AF),29
4,60020-46: Arg-Pro-Arg-Orn-Glu(Gly-5-aminoethylsulfonamide isoquinoline)-Ala-Hol (RPR[Orn]E([Gly-X1])A[hLeu]),37
5,60020-48: Arg-Pro-Arg-Orn-Glu(Gly-5-aminoethylsulfonamide isoquinoline)-Nva-Hol (RPR[Orn]E([Gly-X1])[Nva][hLeu]),10
6,60020-54: Arg-Pro-Arg-Abu-Glu(Gly-5-aminoethylsulfonamide isoquinoline)-Ala-Hol (RPR[Abu]E([Gly-X1])A[hLeu]),34
7,60020-61: Arg-Pro-Arg-Nle-Glu(Gly-5-aminoethylsulfonamide isoquinoline)-Ala-Phe (RPR[Nle]E([Gly-X1])AF),29
8,60020-62: Arg-Pro-Arg-Nle-Glu(Gly-5-aminoethylsulfonamide isoquinoline)-Ala-Hol (RPR[Nle]E([Gly-X1])A[hLeu]),29
9,60020-63: Arg-Pro-Arg-Nle-Glu(Gly-5-aminoethylsulfonamide isoquinoline)-Nva-Phe (RPR[Nle]E([Gly-X1])[Nva]F),17

# Same assay, conditions: 1 μM compound concentration, Assay 2
row,"PKB-kinase (spa) Assay 2, % inhibition of kinase activity [%]",Substance
1,38,60020-30: Arg-Pro-Arg-Nle-Glu(5-aminoethylsulfonamide isoquinoline)-Ala-Hol (RPR[Nle]E(X1)A[hLeu])
2,32,60020-32: Arg-Pro-Arg-Nle-Glu(5-aminoethylsulfonamide isoquinoline)-Nva-Hol (RPR[Nle]E(X1)[Nva][hLeu])
3,33,60020-47: Arg-Pro-Arg-Orn-Glu(Gly-5-aminoethylsulfonamide isoquinoline)-Nva-Phe (RPR[Orn]E([Gly-X1])[Nva]F)
4,13,60020-53: Arg-Pro-Arg-Abu-Glu(Gly-5-aminoethylsulfonamide isoquinoline)-Ala-Phe (RPR[Abu]E([Gly-X1])AF)
5,40,60020-55: Arg-Pro-Arg-Abu-Glu(Gly-5-aminoethylsulfonamide isoquinoline)-Nva-Phe (RPR[Abu]E([Gly-X1])[Nva]F)
6,47,60020-56: Arg-Pro-Arg-Abu-Glu(Gly-5-aminoethylsulfonamide isoquinoline)-Nva-Hol (RPR[Abu]E([Gly-X1])[Nva][hLeu])
7,26,60020-64: Arg-Pro-Arg-Nle-Glu(Gly-5-aminoethylsulfonamide isoquinoline)-Nva-Hol (RPR[Nle]E([Gly-X1])[Nva][hLeu])

# The remaining lines, values behind:
row,Substance,"PKB-kinase (spa) Assay 2, % inhibition of kinase activity [%]"
1,60020-39: Arg-Pro-Arg-Dap-Glu(Gly-5-aminoethylsulfonamide isoquinoline)-Nva-Phe (RPR[Dap]E([Gly-X1])[Nva]F),16
2,60020-40: Arg-Pro-Arg-Dap-Glu(Gly-5-aminoethylsulfonamide isoquinoline)-Nva-Hol (RPR[Dap]E([Gly-X1])[Nva][hLeu]),22
3,60020-45: Arg-Pro-Arg-Orn-Glu(Gly-5-aminoethylsulfonamide isoquinoline)-Ala-Phe (RPR[Orn]E([Gly-X1])AF),53
4,60020-46: Arg-Pro-Arg-Orn-Glu(Gly-5-aminoethylsulfonamide isoquinoline)-Ala-Hol (RPR[Orn]E([Gly-X1])A[hLeu]),57
5,60020-48: Arg-Pro-Arg-Orn-Glu(Gly-5-aminoethylsulfonamide isoquinoline)-Nva-Hol (RPR[Orn]E([Gly-X1])[Nva][hLeu]),22
6,60020-54: Arg-Pro-Arg-Abu-Glu(Gly-5-aminoethylsulfonamide isoquinoline)-Ala-Hol (RPR[Abu]E([Gly-X1])A[hLeu]),45
7,60020-61: Arg-Pro-Arg-Nle-Glu(Gly-5-aminoethylsulfonamide isoquinoline)-Ala-Phe (RPR[Nle]E([Gly-X1])AF),40
8,60020-62: Arg-Pro-Arg-Nle-Glu(Gly-5-aminoethylsulfonamide isoquinoline)-Ala-Hol (RPR[Nle]E([Gly-X1])A[hLeu]),38
9,60020-63: Arg-Pro-Arg-Nle-Glu(Gly-5-aminoethylsulfonamide isoquinoline)-Nva-Phe (RPR[Nle]E([Gly-X1])[Nva]F),19

# Same assay, conditions: chimeric PTR compounds (peptide conjugated to isoquinoline small molecule); read-out: PKB IC50
row,IC50 [µM],Substance
1,10,6106 (RPRT[Dap](SO2‑IQ)SF) [compound 6106]

# Same assay, conditions: plate screening, peptide moiety alone, PKB I
row,% Inhibition PKB I [%],Substance
1,62,60002-50 (RPRTSA[hLeu]) [Compound 60002-50]
2,53,60006-7B (RPR[Nva][GlyNH2][Abu][hLeu]) [Compound 60006-7B]

# The next lines start with the substance.
row,Substance,% Inhibition PKB I [%]
1,60006-11B (RPR[Nva][GlyNH2][Dap][Ph2]; reading uncertain) [Compound 60006-11B],51
2,60006-16A (RPR[Nva][GlyNH2][GltNH2][hLeu]; reading uncertain) [Compound 60006-16A],42

# Same assay, conditions: plate screening, peptide moiety alone, PKB II
row,% Inhibition PKB II [%],Substance
1,47,60006-7B (RPR[Nva][GlyNH2][Abu][hLeu]) [Compound 60006-7B]
2,44,60006-11B (RPR[Nva][GlyNH2][Dap][Ph2]; reading uncertain) [Compound 60006-11B]
3,42,60006-16A (RPR[Nva][GlyNH2][GltNH2][hLeu]; reading uncertain) [Compound 60006-16A]

# Source: patent US7407939B2, “Protein kinase inhibitors comprising ATP mimetics conjugated to peptides or peptidomimetics” (CureGenics Ltd., priority 2001, dated 2008)
